Data reported in patent publication US20080058636A1, “METHODS OF MYOCARDIAL IMAGING” (Epix Pharmaceuticals, Inc., priority 2005, published 2008).
Bridge positions count the residues as written; N and C are the ends. Square brackets hold non-standard residues; d marks the D form. Ends that are not written are not given here. Cha = N[C@@H](CC1CCCCC1)C(=O)O; GdT = GdDTPA-thiourea

Key:
[1] = target: rat collagen (acid soluble, type I, rat tail, Upstate 08-115) (rat) (UniProt P02454); assay: dried collagen assay, 5 uM each
Chain of rat collagen (acid soluble, type I, rat tail, Upstate 08-115) (rat) (P02454 152-1207, chain 1 of 2): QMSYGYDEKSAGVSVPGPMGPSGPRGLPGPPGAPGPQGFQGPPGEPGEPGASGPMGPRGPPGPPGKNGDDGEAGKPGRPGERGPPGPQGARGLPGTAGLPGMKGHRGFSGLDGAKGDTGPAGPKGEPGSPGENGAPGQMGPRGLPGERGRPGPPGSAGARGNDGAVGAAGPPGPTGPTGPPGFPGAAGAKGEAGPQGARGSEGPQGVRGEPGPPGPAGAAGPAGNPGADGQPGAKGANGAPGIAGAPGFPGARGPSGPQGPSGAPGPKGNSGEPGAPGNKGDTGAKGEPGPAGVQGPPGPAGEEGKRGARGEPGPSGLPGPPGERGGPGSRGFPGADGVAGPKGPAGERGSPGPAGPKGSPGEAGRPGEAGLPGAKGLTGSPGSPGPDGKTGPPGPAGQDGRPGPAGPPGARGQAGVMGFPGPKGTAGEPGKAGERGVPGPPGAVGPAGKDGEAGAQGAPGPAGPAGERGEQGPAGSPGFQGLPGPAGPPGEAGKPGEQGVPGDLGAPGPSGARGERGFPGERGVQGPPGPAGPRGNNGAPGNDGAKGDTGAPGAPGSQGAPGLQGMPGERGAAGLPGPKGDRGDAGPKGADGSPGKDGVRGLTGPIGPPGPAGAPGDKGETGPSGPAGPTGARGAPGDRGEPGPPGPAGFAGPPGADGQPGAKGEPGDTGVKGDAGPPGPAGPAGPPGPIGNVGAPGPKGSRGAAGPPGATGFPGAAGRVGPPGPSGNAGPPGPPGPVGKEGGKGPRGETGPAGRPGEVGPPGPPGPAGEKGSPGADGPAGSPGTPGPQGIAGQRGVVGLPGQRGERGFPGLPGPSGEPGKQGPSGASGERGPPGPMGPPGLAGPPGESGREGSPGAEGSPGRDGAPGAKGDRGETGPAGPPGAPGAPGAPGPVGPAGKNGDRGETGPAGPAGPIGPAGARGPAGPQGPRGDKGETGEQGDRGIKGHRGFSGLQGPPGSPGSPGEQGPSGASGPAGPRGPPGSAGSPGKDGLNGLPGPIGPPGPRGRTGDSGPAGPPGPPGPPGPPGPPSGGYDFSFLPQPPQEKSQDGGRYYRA
Chain of rat collagen (acid soluble, type I, rat tail, Upstate 08-115) (rat) (P02466 86-1125, chain 2 of 2, further chain): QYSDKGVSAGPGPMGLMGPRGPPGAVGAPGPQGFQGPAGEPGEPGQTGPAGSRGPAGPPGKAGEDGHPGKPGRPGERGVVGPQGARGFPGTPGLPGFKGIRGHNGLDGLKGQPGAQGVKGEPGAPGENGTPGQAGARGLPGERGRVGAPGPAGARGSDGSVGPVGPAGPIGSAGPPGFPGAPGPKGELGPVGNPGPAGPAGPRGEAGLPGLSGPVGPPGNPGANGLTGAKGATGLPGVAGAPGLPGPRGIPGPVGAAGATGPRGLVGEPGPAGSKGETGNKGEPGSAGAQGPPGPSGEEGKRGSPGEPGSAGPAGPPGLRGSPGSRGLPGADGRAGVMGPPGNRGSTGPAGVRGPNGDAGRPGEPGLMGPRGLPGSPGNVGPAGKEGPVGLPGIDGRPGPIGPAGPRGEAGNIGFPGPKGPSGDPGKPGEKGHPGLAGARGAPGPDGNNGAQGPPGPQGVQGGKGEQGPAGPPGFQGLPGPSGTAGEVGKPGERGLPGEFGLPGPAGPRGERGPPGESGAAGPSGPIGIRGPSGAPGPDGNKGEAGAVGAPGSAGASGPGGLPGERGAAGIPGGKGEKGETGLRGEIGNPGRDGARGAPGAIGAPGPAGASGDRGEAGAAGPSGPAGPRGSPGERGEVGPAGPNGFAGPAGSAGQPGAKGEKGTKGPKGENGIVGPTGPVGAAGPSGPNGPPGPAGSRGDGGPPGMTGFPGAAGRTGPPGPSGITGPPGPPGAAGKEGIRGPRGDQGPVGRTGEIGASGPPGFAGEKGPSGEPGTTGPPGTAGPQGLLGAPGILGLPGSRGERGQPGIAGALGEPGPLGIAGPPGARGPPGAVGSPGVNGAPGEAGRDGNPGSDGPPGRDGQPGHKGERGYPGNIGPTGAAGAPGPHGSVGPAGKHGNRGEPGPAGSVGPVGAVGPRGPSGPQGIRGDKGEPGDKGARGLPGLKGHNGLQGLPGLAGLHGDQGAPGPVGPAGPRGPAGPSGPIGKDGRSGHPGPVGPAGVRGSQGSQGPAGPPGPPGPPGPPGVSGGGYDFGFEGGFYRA

[2] = target: human collagen type I (acid soluble, extracted from placenta, Sigma C7774) (human) (UniProt P02452); assay: dried collagen assay, 5 uM each
Chain of human collagen type I (acid soluble, extracted from placenta, Sigma C7774) (human) (P02452 162-1218 limits assumed, chain 1 of 2): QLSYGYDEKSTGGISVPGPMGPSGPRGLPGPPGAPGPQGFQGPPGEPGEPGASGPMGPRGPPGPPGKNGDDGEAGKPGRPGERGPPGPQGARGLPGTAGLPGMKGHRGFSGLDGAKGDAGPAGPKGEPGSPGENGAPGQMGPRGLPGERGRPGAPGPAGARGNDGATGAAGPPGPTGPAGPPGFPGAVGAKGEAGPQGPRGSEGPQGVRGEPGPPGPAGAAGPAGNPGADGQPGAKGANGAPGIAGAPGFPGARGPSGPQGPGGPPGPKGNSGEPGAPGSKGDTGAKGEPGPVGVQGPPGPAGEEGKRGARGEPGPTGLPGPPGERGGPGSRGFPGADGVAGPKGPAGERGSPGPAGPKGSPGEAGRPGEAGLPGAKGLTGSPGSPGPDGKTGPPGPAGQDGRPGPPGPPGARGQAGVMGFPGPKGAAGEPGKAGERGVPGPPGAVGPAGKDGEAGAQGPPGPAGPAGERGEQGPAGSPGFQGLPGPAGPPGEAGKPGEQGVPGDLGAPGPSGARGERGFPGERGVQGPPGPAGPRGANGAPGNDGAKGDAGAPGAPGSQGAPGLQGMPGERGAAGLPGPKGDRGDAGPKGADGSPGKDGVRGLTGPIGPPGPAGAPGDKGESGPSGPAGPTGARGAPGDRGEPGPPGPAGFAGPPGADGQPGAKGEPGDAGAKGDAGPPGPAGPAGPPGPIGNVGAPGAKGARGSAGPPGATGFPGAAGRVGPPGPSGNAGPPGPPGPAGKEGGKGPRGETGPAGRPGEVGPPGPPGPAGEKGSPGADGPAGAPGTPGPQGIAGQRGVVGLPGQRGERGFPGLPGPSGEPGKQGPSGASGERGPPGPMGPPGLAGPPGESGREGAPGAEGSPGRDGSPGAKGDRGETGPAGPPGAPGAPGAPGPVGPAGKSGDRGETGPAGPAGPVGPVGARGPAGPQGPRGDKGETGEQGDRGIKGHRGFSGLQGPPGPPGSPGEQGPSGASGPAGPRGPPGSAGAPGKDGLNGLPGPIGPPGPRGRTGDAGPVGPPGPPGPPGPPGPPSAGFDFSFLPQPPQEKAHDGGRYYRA
Chain of human collagen type I (acid soluble, extracted from placenta, Sigma C7774) (human) (P08123 80-1119 limits assumed, chain 2 of 2, further chain): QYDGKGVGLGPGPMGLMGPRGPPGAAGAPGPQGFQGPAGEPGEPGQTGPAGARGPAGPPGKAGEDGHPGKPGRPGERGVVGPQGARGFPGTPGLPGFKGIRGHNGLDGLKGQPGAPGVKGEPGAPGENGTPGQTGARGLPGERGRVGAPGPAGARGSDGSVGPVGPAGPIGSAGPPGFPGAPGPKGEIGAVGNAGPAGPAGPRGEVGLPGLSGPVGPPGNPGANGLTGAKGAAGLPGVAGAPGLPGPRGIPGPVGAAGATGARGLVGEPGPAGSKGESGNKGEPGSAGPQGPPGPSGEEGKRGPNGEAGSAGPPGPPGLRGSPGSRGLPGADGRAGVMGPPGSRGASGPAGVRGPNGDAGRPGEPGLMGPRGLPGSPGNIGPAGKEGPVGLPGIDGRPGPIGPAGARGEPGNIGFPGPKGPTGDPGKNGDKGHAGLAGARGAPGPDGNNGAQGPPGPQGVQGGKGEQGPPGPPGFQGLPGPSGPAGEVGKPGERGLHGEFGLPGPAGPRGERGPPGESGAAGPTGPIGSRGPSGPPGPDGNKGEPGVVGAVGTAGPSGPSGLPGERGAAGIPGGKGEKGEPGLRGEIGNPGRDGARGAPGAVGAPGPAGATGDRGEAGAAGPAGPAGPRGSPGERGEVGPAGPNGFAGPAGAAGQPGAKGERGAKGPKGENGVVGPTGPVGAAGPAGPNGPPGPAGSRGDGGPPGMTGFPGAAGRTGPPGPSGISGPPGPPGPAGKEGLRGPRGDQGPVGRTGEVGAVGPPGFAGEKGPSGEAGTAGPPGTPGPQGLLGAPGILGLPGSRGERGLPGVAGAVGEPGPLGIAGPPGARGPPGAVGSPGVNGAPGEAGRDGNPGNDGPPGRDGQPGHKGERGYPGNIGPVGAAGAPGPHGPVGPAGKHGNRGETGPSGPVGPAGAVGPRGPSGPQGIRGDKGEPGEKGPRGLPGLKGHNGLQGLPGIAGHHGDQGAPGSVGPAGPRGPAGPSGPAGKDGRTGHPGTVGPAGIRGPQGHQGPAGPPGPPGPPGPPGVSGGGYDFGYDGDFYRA

Row | Binder | Rat binding [1] [%] | Human binding [2] [%]
1 | GKWHCTTYFPHHYCVYG [Compound ID 942] | 67 | 78
2 | GQWHCTTRFPHHYCFYG [Compound ID 931] | 83 | 70
3 | GKWHCTTYFPHYYCLYG [Compound ID 947] | 57 | 64
4 | GAWHCTTYFPHHYCLYG [Compound ID 915] | 0 | 15
5 | GQWHCTTFFPHHYCLYG [Compound ID 929] | 34 | 27
6 | GKWHCTTLFPHHYCLYG [Compound ID 930] | 42 | 31
7 | GKWHCYTYFPHHYCVYY [Compound ID 945] | 82 | 83
8 | GQWHCTTLFPHNYCLYG [Compound ID 924] | 1 | 24
9 | AWHCTTLFPHHYCLYG [Compound ID 909] | 0 | 14
10 | GQWHCTDRFPHHYCLYG [Compound ID 936] | 5 | 9
11 | GQWHCTTLFPNHYCLYG [Compound ID 923] | 10 | 28
12 | GQWHCKTRFPHHYCLYG [Compound ID 957] | 39 | 42
13 | GAWHCTTLFPHHYCLYG [Compound ID 908] | 0 | 20
14 | GKWHCTTYFPHWYCLYG [Compound ID 948] | 17 | 25
15 | GDWHCTTLFPHHYCLYG [Compound ID 910] | 0 | 13
16 | GQWHCTTIFPHHYCLYG [Compound ID 917] | 0 | 12
17 | GQWKCTTRFPHHYCLYG [Compound ID 956] | 15 | 39
18 | GQWHCTYLFPHHYCLYG [Compound ID 921] | 35 | 68
19 | GQWHCTTLFPHHYCVYG [Compound ID 928] | 80 | 73
20 | GQWHCTTLFPHHYCIYG [Compound ID 927] | 63 | 64
21 | GSWHCTTLFPHHYCLYG [Compound ID 911] | 0 | 15
22 | GQWHCTT[Cha]FPHHYCLYG (disulfide 5-14 (inferred)) [Compound ID 918] | 0 | 19
23 | GQWNCTTLFPHHYCLYG [Compound ID 922] | 58 | 68
24 | GKWHCTTYFPHHYCLYY [Compound ID 949] | 79 | 72
25 | GKWHCTTYFPYHYCLYG [Compound ID 946] | 68 | 71
26 | PPWHCTTLFPHHYCLYG [Compound ID 912] | 0 | 20
27 | GQWHCTKRFPHHYCLYG [Compound ID 940] | 8 | 9
28 | AWHCTTRFPAHYCLYG [Compound ID 937] | 14 | 11
29 | GQWHCTTRFAHHYCLYG [Compound ID 938] | 13 | 16

The remaining lines, values ahead:

Row | Rat binding [1] [%] | Human binding [2] [%] | Binder
30 | 66 | 64 | GKWHCYTKFPHHYCVYG [Compound ID 978]
31 | 74 | 67 | GKWHCYTYFPHHYCLYVK [Compound ID 989]
32 | 93 | 94 | GKWHCYTKFPYHYCVYY [Compound ID 1011]
33 | 89 | 92 | GKWHCYTKFPHHYCVYYY [Compound ID 1010]
34 | 86 | 88 | GKWHCYTYFPYHYCLYG [Compound ID 964]
35 | 84 | 86 | GdT-GQWHCYTYFPHHYCLYGK (disulfide 5-14 (inferred); not fully specified (residue 18, C-terminus)) [Compound ID 994]
36 | 91 | 82 | GKWHCYTYFPYHYCVYG [Compound ID 963]
37 | 0 | 3 | GKWHCTTYFPHHFCLYG [Compound ID 972]
38 | 86 | 87 | GKWHCYTKFPHHYCVYY [Compound ID 979]
39 | 81 | 73 | GYKWHCTTYFPHHYCLYG [Compound ID 981]
40 | 8 | 14 | GKWHCTTLFPHHVCLYG [Compound ID 966]
41 | 80 | 85 | GKWHCTTKFPHHYCLYY [Compound ID 980]
42 | 67 | 76 | GKWHCYTYFPHHYCLYGK [Compound ID 996]
43 | 69 | 67 | GHKWHCTTYFPHHYCLYG [Compound ID 984]
44 | 70 | 75 | GdT-GQWHCYTKFPHHYCLYGK (disulfide 5-14 (inferred); not fully specified (residues 8, 18, C-terminus)) [Compound ID 993]
45 | 34 | 30 | KKGQWHCTTYFPHHYCLYG [Compound ID 960]
46 | 47 | 40 | GVKWHCTTYFPHHYCLYG [Compound ID 982]
47 | 62 | 59 | GKWYCTTYFPHHYCLYG [Compound ID 990]
48 | 64 | 70 | GKWHCYTYFPHHYCVYYK [Compound ID 975]
49 | 11 | 23 | GKWHCYKYFPHHYCLYG [Compound ID 991]
50 | 11 | 26 | GKWHCTTYFPHHVCLYG [Compound ID 965]
51 | 10 | 20 | GKWHCTTYFPTHYCLYG [Compound ID 962]
52 | 59 | 58 | GFKWHCTTYFPHHYCLYG [Compound ID 983]
53 | 33 | 45 | GQWHCTTRFPKHYCLYG [Compound ID 958]
54 | 42 | 51 | GKWHCYTKFPHHYCLYGK [Compound ID 995]
55 | 57 | 62 | GKWHCTTYFPHHYCLYYK [Compound ID 976]
56 | 68 | 56 | GKWHCYTYFPHHYCLYFK [Compound ID 985]
57 | 69 | 71 | GKWHCYTYFPHHYCVYGK [Compound ID 974]
